Test results: PMC11853025

Experiments:
[1] = biological target: iC3b (UniProt P01024); test: SPR; C3b deposited on a CM5 chip (amine-coupled seed, then convertase-mediated deposition to about 5000 RU), iC3b and C3dg made from it on the chip; αI domains injected as dilution series, 120 s; Biacore T200, 25 °C; HBST (10 mM HEPES, 150 mM NaCl, 0.005% Tween-20, pH 7.4) with 1 mM MgCl2; Langmuir 1:1 fit, KD calculated
[2] = biological target: ICAM-1 (recombinant, Sino Biological 10346-H03H) (UniProt P05362); test: SPR; competitive: αI domains at 5 µM preincubated with simvastatin (3-100 µM), injected over immobilised iC3b or ICAM-1; HBST with 1 mM MgCl2 and 5% DMSO; signal as percent of the non-inhibited signal
[3] = biological target: iC3b (UniProt P01024); test: as above

Chain of ICAM-1 (recombinant, Sino Biological 10346-H03H) (P05362 28-480): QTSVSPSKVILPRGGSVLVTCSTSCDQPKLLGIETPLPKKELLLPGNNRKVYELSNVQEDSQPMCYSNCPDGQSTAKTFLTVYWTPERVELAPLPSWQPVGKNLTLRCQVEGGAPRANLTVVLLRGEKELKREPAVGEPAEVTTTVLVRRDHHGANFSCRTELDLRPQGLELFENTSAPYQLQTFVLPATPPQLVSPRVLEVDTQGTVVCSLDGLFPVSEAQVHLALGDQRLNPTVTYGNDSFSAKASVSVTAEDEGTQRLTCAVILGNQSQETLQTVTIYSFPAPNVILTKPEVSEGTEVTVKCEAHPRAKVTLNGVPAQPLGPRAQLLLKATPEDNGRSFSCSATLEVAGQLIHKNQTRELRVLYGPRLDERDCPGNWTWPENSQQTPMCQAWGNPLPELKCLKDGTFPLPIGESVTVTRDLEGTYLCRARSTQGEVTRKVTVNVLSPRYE

Substance	Kd [1] [µM]	residual binding activity with simvastatin (percent of the non-inhibited signal) [2] [%]	residual binding activity with simvastatin (percent of the non-inhibited signal) [3] [%]
CR3 αMI domain, wild type (WT) (from UniProt P11215 146-334) (domain or fragment)	15		
LFA-1 αLI domain, high-affinity (HA) variant p.K312C/K319C (domain or fragment)		83	
CR3 αMI domain, high-affinity (HA) variant p.I332G (from UniProt P11215 146-334) (domain or fragment)	1.8		77
